Measured values published in publication PMC3713010, “Sox2 Transcriptionally Regulates Pqbp1, an Intellectual Disability-Microcephaly Causative Gene, in Neural Stem Progenitor Cells”.

B1: 74 (dsDNA)
DNA 1: GGGGGGACTTTCTTGGCGGATTTGGTAACGACAAAGTTAGGATCCCCC
DNA 2: GGGGGATCCTAACTTTGTCGTTACCAAATCCGCCAAGAAAGTCCCCCC
B2: 90 (dsDNA)
DNA 1: GGGGGTGCTGTTTTTTGTTACTGTCACTAATTACATTTTAAATTATCCCCC
DNA 2: GGGGGATAATTTAAAATGTAATTAGTGACAGTAACAAAAAACAGCACCCCC
B3: 65 (dsDNA)
DNA 1: GGGGGGTACTTGGTGATAATTTCATTGTCCACATGCCCCCC
DNA 2: GGGGGGCATGTGGACAATGAAATTATCACCAAGTACCCCCC
B4: 82 (dsDNA)
DNA 1: GGGGGACTATTTATTTGTGTTTTCCTATTCACTTTACATCCCCC
DNA 2: GGGGGATGTAAAGTGAATAGGAAAACACAAATAAATAGTCCCCC
B5: 69 (dsDNA)
DNA 1: GGGGGACAAGTGATTTGTCCTTATCACATAGCTAGGAAAAGGGAATCCCCC
DNA 2: GGGGGATTCCCTTTTCCTAGCTATGTGATAAGGACAAATCACTTGTCCCCC
B6: 86 (dsDNA)
DNA 1: GGGGGAGTTTAGTTTGTAGAGTACTTACCTAGCAGCACAAAGCCCTGCCCCC
DNA 2: GGGGGCAGGGCTTTGTGCTGCTAGGTAAGTACTCTACAAACTAAACTCCCCC
B7: 79 (dsDNA)
DNA 1: GGGGGTGATAGTAACAAAAACCATTTTGTTTTTGGCTCCCCC
DNA 2: GGGGGAGCCAAAAACAAAATGGTTTTTGTTACTATCACCCCC
B8: 89 (dsDNA)
DNA 1: GGGGGCTACCACACCCAACCTCTAGTAAAGGTTTACAAAATGAATGACCCCC
DNA 2: GGGGGTCATTCATTTTGTAAACCTTTACTAGAGGTTGGGTGTGGTAGCCCCC
B9: 66 (dsDNA)
DNA 1: GGGGGGGAACTCCCTTAAATTTGGTTTGTTTATGTGTCCCCC
DNA 2: GGGGGACACATAAACAAACCAAATTTAAGGGAGTTCCCCCCC
B10: 81 (dsDNA)
DNA 1: GGGGGAGAGTGCTGGTATTAAAAGGCACAAACTTTCTTTCCCCC
DNA 2: GGGGGAAAGAAAGTTTGTGCCTTTTAATACCAGCACTCTCCCCC
B11: 75 (dsDNA)
DNA 1: GGGGGGCTCTGGGTATAATTAACAATAAAATGCACCCCC
DNA 2: GGGGGTGCATTTTATTGTTAATTATACCCAGAGCCCCCC
B12: 77 (dsDNA)
DNA 1: GGGGGTATGTCTATTTGTTTTTTATTTTTTGAAGACTCCCCC
DNA 2: GGGGGAGTCTTCAAAAAATAAAAAACAAATAGACATACCCCC
B13: 83 (dsDNA)
DNA 1: GGGGGGTCCAAGTTTTGTGACCCTTTAATACAGTTAGATCCCCCC
DNA 2: GGGGGGATCTAACTGTATTAAAGGGTCACAAAACTTGGACCCCCC
B14: 64 (dsDNA)
DNA 1: GGGGGATATATGCACAAACACTCATTTACATAAAATAACCCCC
DNA 2: GGGGGTTATTTTATGTAAATGAGTGTTTGTGCATATATCCCCC
B15: 73 (dsDNA)
DNA 1: GGGGGCTTGTCCTCAGCATCTATGGTAACACACAAATCCTGAAGCCCCC
DNA 2: GGGGGCTTCAGGATTTGTGTGTTACCATAGATGCTGAGGACAAGCCCCC
B16: 72 (dsDNA)
DNA 1: GGGGGGTTTGTTTTTTAAGGAACTGTAATGAACAAATGTCAGGACCCCC
DNA 2: GGGGGTCCTGACATTTGTTCATTACAGTTCCTTAAAAAACAAACCCCCC
B17: 80 (dsDNA)
DNA 1: GGGGGCATCCCAAATTGTTTTCTCACTTTTGTACCACAGATAGATCCCCC
DNA 2: GGGGGATCTATCTGTGGTACAAAAGTGAGAAAACAATTTGGGATGCCCCC
B18: 68 (dsDNA)
DNA 1: GGGGGTTTGTTTGTTTGTTTAAAGGATTTATTTATTTATCCCCC
DNA 2: GGGGGATAAATAAATAAATCCTTTAAACAAACAAACAAACCCCC
B19: 78 (dsDNA)
DNA 1: GGGGGTCTTTTGATTTGTCCGATTTAGGTTTTAAACCCCC
DNA 2: GGGGGTTTAAAACCTAAATCGGACAAATCAAAAGACCCCC
B20: 85 (dsDNA)
DNA 1: GGGGGACATATGCAATTGTTTCCTGTATTATAGTAGAGATCCCCC
DNA 2: GGGGGATCTCTACTATAATACAGGAAACAATTGCATATGTCCCCC
B21: 87 (dsDNA)
DNA 1: GGGGGTTATGACTGTTTAATAATATATATTGTGTTCTGGCCCCCC
DNA 2: GGGGGGCCAGAACACAATATATATTATTAAACAGTCATAACCCCC
B22: 67 (dsDNA)
DNA 1: GGGGGGCATATGCATTGTCTGTGTATTCTAAATGTATCCCCC
DNA 2: GGGGGATACATTTAGAATACACAGACAATGCATATGCCCCCC
B23: 84 (dsDNA)
DNA 1: GGGGGTATGAATCACAATGTAAATATCTGTGTTTACCCCC
DNA 2: GGGGGTAAACACAGATATTTACATTGTGATTCATACCCCC
B24: 88 (dsDNA)
DNA 1: GGGGGTGTTTTGTTTTGTTTTTTGTATTGGGAAGTGGGCCCCC
DNA 2: GGGGGCCCACTTCCCAATACAAAAAACAAAACAAAACACCCCC
B25: 76 (dsDNA)
DNA 1: GGGGGCAGGTATGATTGTCCATATTGCTAATAAACCCCCC
DNA 2: GGGGGGTTTATTAGCAATATGGACAATCATACCTGCCCCC

Legend:
Test in all cases: EMSA; 10% glycerol, 20 mM HEPES pH 7.8, 45 mM KCl, 10 mM NaCl, 1 mM EDTA, 1 mM DTT, 0.2 ug/uL BSA, 0.1% NP-40, 50 ng poly-dIdC; 20 ng each GST protein; room temperature 30 min (heterodimers 4 C); 6% PAGE 0.25x TBE
Conditions in all cases: protein: recombinant; tags: GST (N-terminal, pGEX-6P-1); label: 32P-dCTP fill-in of the 5' (dG)5 overhangs of both strands (Methods; control probes are given with GGG)
[1] = target: T1, Oct6 DNA-binding domain (BD-Oct6) (Mus musculus (B6), UniProt P21952 317-416)
T1 sequence: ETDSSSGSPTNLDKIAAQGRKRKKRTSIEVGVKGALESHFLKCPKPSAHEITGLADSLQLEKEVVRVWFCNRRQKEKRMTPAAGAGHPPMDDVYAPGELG
Outline: (§1)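 GST-tagged transcription factor DNA-binding domains were made in E. coli BL21 and purified on glutathione-sepharose. They were tested against candidate cis-element oligonucleotides, annealed and labelled with 32P-dCTP. Each protein (20 ng) was mixed with 40,000–50,000 cpm probe and 50 ng poly-dIdC in HEPES/KCl glycerol buffer with BSA and detergent for 30 min at room temperature. Samples were resolved on 6% polyacrylamide in 0.25×TBE at 4°C. DNA binding was scored as band radioactivity in the expected shift region, measured on a BAS4000 imager.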

[2] = target: T2, Brn2 DNA-binding domain (BD-Brn2) (Mus musculus (B6), UniProt P31360 336-435)
T2 sequence: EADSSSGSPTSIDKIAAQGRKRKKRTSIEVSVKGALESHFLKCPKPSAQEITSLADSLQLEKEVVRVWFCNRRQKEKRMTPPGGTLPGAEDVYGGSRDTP
Outline: as §1

[3] = target: Pax6 DNA-binding domain (BD-Pax6) (Mus musculus (B6), UniProt P63015 190-289)
Outline: as §1

Sequence of Pax6 DNA-binding domain (BD-Pax6) (P63015 190-289): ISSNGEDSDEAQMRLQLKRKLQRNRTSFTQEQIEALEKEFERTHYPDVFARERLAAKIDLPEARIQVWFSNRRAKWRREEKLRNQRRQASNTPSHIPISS

Row | Binder | binding result [1] | binding result [2] | binding result [3]
1 | B1 | no binding | no binding | no binding
2 | B2 | binds | binds | binds
3 | B3 | binds | binds | binds
4 | B4 | binds | no binding | no binding
5 | B5 | binds | no binding | no binding
6 | B6 | no binding | no binding | no binding
7 | B7 | no binding | no binding | no binding
8 | B8 | no binding | no binding | binds
9 | B9 | binds | no binding | binds
10 | B10 | no binding | no binding | no binding
11 | B11 | binds | binds | binds
12 | B12 | no binding | no binding | no binding
13 | B13 | binds | no binding | binds
14 | B14 | binds | binds | binds
15 | B15 | no binding | no binding | no binding
16 | B16 | binds | binds | binds
17 | B17 | binds | no binding | no binding
18 | B18 | binds | binds | binds
19 | B19 | binds | no binding | no binding
20 | B20 | no binding | no binding | binds
21 | B21 | binds | binds | binds
22 | B22 | no binding | no binding | no binding
23 | B23 | no binding | no binding | binds
24 | B24 | no binding | no binding | no binding
25 | B25 | binds | binds | binds
